Source: publication doi:10.1101/2025.08.27.672337, “Cyclin-dependent kinase-like 5 (CDKL5) binds to talin and is anchored at the postsynaptic density via direct interaction with PDZ domains” (bioRxiv, 2025)
Several values for one entry are separate records, joined by “and”; a condition that tells them apart may be missing. Equal values may be shown once. Blank lines part the entries; values can stand above or below the binder they belong to. Where no end group is shown, it is not given here. maleimide‑fluorescein = Maleimide-fluorescein dye, coupled to a cysteine thiol

How the values were obtained:
Details in all cases: both partners purified
talin1 R7R8 [1] = target: T1, talin1 R7R8 (mouse, UniProt P26039 1357-1659); experiment: NMR titration; 15N-HSQC of 15N-labelled protein at 150 µM with peptide added (1:0.5 to 1:5 molar ratios); 12 mM NaH2PO4, 6 mM Na2HPO4, pH 6.5, 50 mM NaCl, 2 mM DTT, 5% D2O, 298K
T1 construct: talin1 rod domains R7R8, mouse, UniProt P26039, residues 1357-1659; Expressed from pET151; His-tag removed with AcTEV protease; 15N-labelled for NMR; also called talin R7R8

talin1 R8 = target: T2, talin1 R8 (mouse, UniProt P26039 1461-1580); experiment: as above
T2 construct: talin1 rod domain R8, mouse, UniProt P26039, residues 1461-1580; Expressed from pET151; His-tag removed with AcTEV protease; 15N-labelled for NMR; also called talin R8; R8 rod domain of talin

talin1 R7R8 [2] = target: T1, talin1 R7R8; experiment: fluorescence polarisation; dye-labelled peptide against a twofold serial dilution of the protein in PBS (10 mM Na2HPO4, 1.8 mM KH2PO4, pH 7.4, 137 mM NaCl, 2.7 mM KCl), 25°C; one-site total binding fit; triplicate
SHANK1 PDZ domain [3] = target: T3, SHANK1 PDZ domain (mouse, UniProt D3YZU1 654-762); experiment: as above
T3 construct: SHANK1 PDZ domain, mouse, UniProt D3YZU1, residues 654-762; Expressed from pET151; His-tag removed with AcTEV protease; 15N-labelled for NMR
T3 sequence (looked up): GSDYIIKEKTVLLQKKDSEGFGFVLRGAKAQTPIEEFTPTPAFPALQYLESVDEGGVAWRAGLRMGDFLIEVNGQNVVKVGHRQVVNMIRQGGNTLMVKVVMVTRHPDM

SHANK2 PDZ domain [4] = target: T4, SHANK2 PDZ domain (mouse, UniProt Q80Z38 247-340); experiment: as above
T4 construct: SHANK2 PDZ domain, mouse, UniProt Q80Z38, residues 247-340; Expressed from pET151; His-tag removed with AcTEV protease; 15N-labelled for NMR
T4 sequence (looked up): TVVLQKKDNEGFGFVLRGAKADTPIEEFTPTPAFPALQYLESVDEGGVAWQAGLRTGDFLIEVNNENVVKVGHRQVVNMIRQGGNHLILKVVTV

SHANK3 PDZ domain = target: T5, SHANK3 PDZ domain (mouse, UniProt Q4ACU6 570-664); experiment: as above
T5 construct: SHANK3 PDZ domain, mouse, UniProt Q4ACU6, residues 570-664; Expressed from pET151; His-tag removed with AcTEV protease
T5 sequence (looked up): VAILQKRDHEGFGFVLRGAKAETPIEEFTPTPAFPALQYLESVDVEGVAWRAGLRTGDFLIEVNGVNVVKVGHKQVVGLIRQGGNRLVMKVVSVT

PSD-95 PDZ3 domain [5] = target: T6, PSD-95 PDZ3 domain (human, UniProt P78352 302-402); experiment: as above
T6 construct: PSD-95 (postsynaptic density protein 95) PDZ3, human, UniProt P78352, residues 302-402; codon optimised synthetic gene; Expressed from pET151; His-tag removed with AcTEV protease; 15N-labelled for NMR; also called PDZ3 of PSD-95

PSD-95 PDZ2 domain [6] = target: T7, PSD-95 PDZ2 domain (human, UniProt P78352 155-249); experiment: as above
T7 construct: PSD-95 (postsynaptic density protein 95) PDZ2, human, UniProt P78352, residues 155-249; codon optimised synthetic gene; Expressed from pET151; His-tag removed with AcTEV protease; 15N-labelled for NMR; also called PDZ2 of PSD-95

SHANK1 PDZ domain [7] = target: T3, SHANK1 PDZ domain; experiment: NMR titration; 15N-HSQC of 15N-labelled protein at 150 µM with peptide added (1:0.5 to 1:5 molar ratios); 12 mM NaH2PO4, 6 mM Na2HPO4, pH 6.5, 50 mM NaCl, 2 mM DTT, 5% D2O, 298K
SHANK2 PDZ domain [8] = target: T4, SHANK2 PDZ domain; experiment: as above
PSD-95 PDZ3 domain [9] = target: T6, PSD-95 PDZ3 domain; experiment: as above
PSD-95 PDZ2 domain [10] = target: T7, PSD-95 PDZ2 domain; experiment: as above

T6 sequence (P78352 302-402): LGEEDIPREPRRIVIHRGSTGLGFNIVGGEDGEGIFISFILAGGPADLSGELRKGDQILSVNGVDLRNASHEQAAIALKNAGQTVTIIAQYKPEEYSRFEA
T1 sequence (P26039 1357-1659): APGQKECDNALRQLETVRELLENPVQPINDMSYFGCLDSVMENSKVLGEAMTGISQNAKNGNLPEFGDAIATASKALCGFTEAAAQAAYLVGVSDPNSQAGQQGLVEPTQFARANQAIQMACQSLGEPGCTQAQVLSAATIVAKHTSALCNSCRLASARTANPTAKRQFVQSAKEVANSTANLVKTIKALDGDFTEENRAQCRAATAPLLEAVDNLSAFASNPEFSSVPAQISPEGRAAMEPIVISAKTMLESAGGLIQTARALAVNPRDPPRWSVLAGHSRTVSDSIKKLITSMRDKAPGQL
T7 sequence (P78352 155-249): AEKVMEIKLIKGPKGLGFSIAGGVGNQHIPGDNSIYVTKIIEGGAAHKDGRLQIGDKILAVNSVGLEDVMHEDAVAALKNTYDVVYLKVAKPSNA
T2 sequence (P26039 1461-1580): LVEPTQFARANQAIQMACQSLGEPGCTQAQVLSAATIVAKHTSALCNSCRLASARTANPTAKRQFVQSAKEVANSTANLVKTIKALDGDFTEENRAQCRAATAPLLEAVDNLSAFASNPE

B2: CDKL5^213-234 peptide, dye-labelled for FP (peptide)
peptide: C(maleimide‑fluorescein)GESEIDQLFTIQKVLGPLPSEQ
notes: single non-native N-terminal cysteine for coupling the dye; source: synthetic peptide (GLBiochem, Shanghai)
fold weaker affinity than CDK1^206-223 with talin1 R7R8 (talin1 R7R8 [2]): 2.5 fold

B3: CDKL5-1^941-960 peptide, fluorescein-labelled (peptide)
peptide: C(maleimide‑fluorescein)YNRTNRSRMPNLNDLKETAL
notes: single non-native N-terminal cysteine for coupling the dye; ends in -ETAL (957-960); also called CDKL5-1 C-terminal tail peptide; CDKL5 isoform 1 C-terminus; source: synthetic peptide (GLBiochem, Shanghai)
Kd (SHANK1 PDZ domain [3]): 8.5 µM and 7.6 µM
Kd (SHANK2 PDZ domain [4]): 5.2 µM
Kd (SHANK3 PDZ domain): 8.6 µM
Kd (PSD-95 PDZ3 domain [5]): 40.7 µM
Kd (PSD-95 PDZ2 domain [6]): 31.3 µM

Other lines, results leading:

binding result (talin1 R7R8 [1]): binds
binding result (talin1 R8): binds
B1: CDKL5^213-234 peptide (NMR) (peptide)
peptide: CGESEIDQLFTIQKVLGPLPSEQ
notes: single non-native N-terminal cysteine with which the synthetic peptides were designed; source: synthetic peptide (GLBiochem, Shanghai)

binding result (SHANK1 PDZ domain [7]): binds
binding result (SHANK2 PDZ domain [8]): binds
binding result (PSD-95 PDZ3 domain [9]): binds
binding result (PSD-95 PDZ2 domain [10]): binds
B4: CDKL5-1^941-960 peptide, unlabelled (peptide)
peptide: CYNRTNRSRMPNLNDLKETAL
notes: single non-native N-terminal cysteine with which the synthetic peptides were designed; ends in -ETAL (957-960); Used unlabelled in NMR; also called CDKL5-1 C-terminal tail peptide; CDKL5-1 peptide; source: synthetic peptide (GLBiochem, Shanghai)
